Data published in US20170247459A1, “COMBINATION THERAPY OF ANTIBODIES AGAINST HUMAN CSF-1R AND USES THEREOF” (HOFFMANN-LA ROCHE INC., priority 2012, published 2017).

Experiments:
Test in all cases: cell-based or functional assay
[1] = molecular target: human mutant CSF-1R L301S Y969F, full-length, on NIH 3T3 cells (human) (UniProt P07333)
[2] = molecular target: human wildtype CSF-1R (wt CSF-1R), full-length, on cells (human) (UniProt P07333)
[3] = molecular target: CSF-1R on cynomolgous monocytes (cynomolgous)

Row | Substance | Mutant CSF-1R IC30 (cell viability, 3D spheroids, CellTiterGlo) [1] [µg/mL] | wtCSF-1R IC30 (cell viability, 3D spheroids, CellTiterGlo) [2] [µg/mL] | % inhibition (of survival) = (100%-% survival), cynomolgous monocytes at 5 µg/ml antibody [3] [%] | % survival of cynomolgous monocytes at 5 µg/ml antibody (CellTiterGlo) [3] [%] | Mutant CSF-1R IC50 (cell viability, 3D spheroids, CellTiterGlo) [1] [µg/mL] | wtCSF-1R IC50 (cell viability, 3D spheroids, CellTiterGlo) [2] [µg/mL]
1 | goat polyclonal anti-CSF-1R antibody ab10676 (abcam) | > 20 | 14.2 |  |  |  | 
2 | Anti CSF-1R SC 2-4A5 (Santa Cruz Biotechnology, US) (antibody) | 2.56 | 16.6 | 69 | 31 | 10 | 10
